Drawing on patent publication US20260227398A1, “CD62L (L-SELECTIN) APTAMER AND ITS APPLICATION FOR T CELL ISOLATION” (University of Washington, published 2026), this text covers relative antibody binding after CD62L siRNA knockdown (vs control siRNA), binding result and Kd for four molecules.

Series [1] addresses human CD62L/L-selectin expressed on J.RT3-T3.5 cells (human) (UniProt P14151). In words: flow cytometry, 50 nM antibody on J.RT3-T3.5 cells 48 hours after electroporation with SELL siRNA. A general note: Flow cytometry measures light scatter and fluorescence of single cells or particles in a stream.
The target of series [2] is T1, E-selectin (CD62E, SELE) (Homo sapiens, UniProt P16581 P16581:22-556).
T1 sequence: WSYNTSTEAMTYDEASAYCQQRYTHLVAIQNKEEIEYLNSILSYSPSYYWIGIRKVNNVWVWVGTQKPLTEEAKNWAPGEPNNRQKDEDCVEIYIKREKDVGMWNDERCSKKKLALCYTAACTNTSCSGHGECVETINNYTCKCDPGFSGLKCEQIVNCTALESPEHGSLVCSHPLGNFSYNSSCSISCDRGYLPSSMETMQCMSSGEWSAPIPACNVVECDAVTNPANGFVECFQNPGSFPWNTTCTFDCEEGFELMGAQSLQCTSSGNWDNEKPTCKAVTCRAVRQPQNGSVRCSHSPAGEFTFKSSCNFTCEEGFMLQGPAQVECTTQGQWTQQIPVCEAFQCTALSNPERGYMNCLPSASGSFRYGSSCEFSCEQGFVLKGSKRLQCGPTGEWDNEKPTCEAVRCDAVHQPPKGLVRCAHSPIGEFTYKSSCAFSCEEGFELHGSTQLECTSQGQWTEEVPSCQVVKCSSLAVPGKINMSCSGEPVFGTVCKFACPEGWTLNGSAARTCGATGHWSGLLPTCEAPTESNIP
In words: BLI; no noticeable binding up to 1000 nM CD62E. Conditions: tags: recombinant human CD62E, ACROBiosystems; label: 5' 6-FAM or biotin (hexaethylene glycol spacer). Here is the method:
(§1) Prior to running, Octet streptavidin (SA) biosensors (Sartorius of Göttingen, Germany) were pre-soaked in 200 μL diluent (WB supplemented with 1% BSA, 0.1 mg/mL yeast tRNA, 0.1 mg/mL salmon sperm DNA and 0.01% Tween-20). For BLI, the SA biosensors were first rinsed in 200 μL diluent for 100 sec to establish the first baseline. The rinsed sensors were transferred to wells containing 50 nM biotinylated aptamers in 200 μL diluent for aptamer immobilization onto the SA biosensors until a threshold of 0.5 nm is reached. Next, aptamer-immobilized SA biosensors were rinsed in 200 μL diluent for 100 sec to remove excess aptamers and for an additional 100 sec in 200 μL diluent to establish the second baseline. The sensors were then transferred to wells containing different concentrations of L-selectin in 200 μL diluent to allow aptamer association with CD62L (R&D Systems of Minneapolis, Minnesota), CD62P (ACROBiosystems of Newark, Delaware), or CD62E (ACROBiosystems). Finally, the sensors were transferred to wells containing 200 μL diluent to allow dissociation. […]
(§2) The binding affinity and kinetics of CD62LApt.52 to JRT.3-T3.5 cells and to recombinant human CD62L protein was characterized by flow cytometry and BLI, respectively. […] However, no noticeable binding of CD62LApt.52 to either CD62E or CD62P at up to 1000 nM was detected by BLI (FIGS. 15A, 15B).

Series [3] deals with P-selectin (CD62P, SELP) (Homo sapiens, UniProt P16109 P16109:42-771). The experiment in a line: BLI; no noticeable binding up to 1000 nM CD62P. Conditions: tags: recombinant human CD62P, ACROBiosystems; label: 5' 6-FAM or biotin (hexaethylene glycol spacer). The method, then:
as §1, §2

For series [4], the target named is T2, L-selectin (CD62L, SELL) (Homo sapiens, UniProt P14151 P14151:39-332).
T2 sequence: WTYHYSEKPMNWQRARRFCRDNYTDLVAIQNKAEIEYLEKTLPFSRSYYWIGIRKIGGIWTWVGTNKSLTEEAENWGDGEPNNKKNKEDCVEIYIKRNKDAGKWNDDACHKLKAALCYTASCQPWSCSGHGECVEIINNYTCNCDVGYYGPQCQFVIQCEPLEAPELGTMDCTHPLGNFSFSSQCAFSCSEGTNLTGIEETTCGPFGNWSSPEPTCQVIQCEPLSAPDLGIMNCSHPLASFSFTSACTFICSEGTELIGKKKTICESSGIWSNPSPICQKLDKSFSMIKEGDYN
In words: BLI; +/-0.045; R2 0.9959; aptamer immobilised. As to conditions: tags: recombinant human CD62L, R&D Systems; label: 5' 6-FAM or biotin (hexaethylene glycol spacer). The method, then:
as §1, §2
Background: In BLI a coated tip is dipped into the sample, and binding shifts an interference pattern.

Series [5] has as its target T3, L-selectin (CD62L) on J.RT3-T3.5 cells (Homo sapiens, UniProt P14151 P14151:39-372).
T3 sequence: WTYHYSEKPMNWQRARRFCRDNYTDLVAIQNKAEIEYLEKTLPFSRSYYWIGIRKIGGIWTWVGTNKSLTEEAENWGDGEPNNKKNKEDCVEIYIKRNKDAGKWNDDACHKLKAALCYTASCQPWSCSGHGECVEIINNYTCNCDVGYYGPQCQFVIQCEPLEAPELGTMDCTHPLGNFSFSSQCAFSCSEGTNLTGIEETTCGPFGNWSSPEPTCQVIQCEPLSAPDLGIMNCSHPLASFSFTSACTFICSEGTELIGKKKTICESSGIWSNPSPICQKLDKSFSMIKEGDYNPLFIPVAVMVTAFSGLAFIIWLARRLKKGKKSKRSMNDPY
The experiment in a line: flow; DPBS Ca/Mg + 5 mM MgCl2, 25 mM glucose, BSA, 4 C. Conditions: tags: endogenous, J.RT3-T3.5 human T-ALL line; label: 5' 6-FAM or biotin (hexaethylene glycol spacer).

Series [6] concerns the target T2, L-selectin (CD62L, SELL). The experiment in a line: BLI; +/-0.125; R2 0.9898; aptamer immobilised. As to conditions: tags: recombinant human CD62L, R&D Systems; label: 5' biotin. Here is the method:
Prior to running, Octet streptavidin (SA) biosensors (Sartorius of Göttingen, Germany) were pre-soaked in 200 μL diluent (WB supplemented with 1% BSA, 0.1 mg/mL yeast tRNA, 0.1 mg/mL salmon sperm DNA and 0.01% Tween-20). For BLI, the SA biosensors were first rinsed in 200 μL diluent for 100 sec to establish the first baseline. The rinsed sensors were transferred to wells containing 50 nM biotinylated aptamers in 200 μL diluent for aptamer immobilization onto the SA biosensors until a threshold of 0.5 nm is reached. Next, aptamer-immobilized SA biosensors were rinsed in 200 μL diluent for 100 sec to remove excess aptamers and for an additional 100 sec in 200 μL diluent to establish the second baseline. The sensors were then transferred to wells containing different concentrations of L-selectin in 200 μL diluent to allow aptamer association with CD62L (R&D Systems of Minneapolis, Minnesota), CD62P (ACROBiosystems of Newark, Delaware), or CD62E (ACROBiosystems). Finally, the sensors were transferred to wells containing 200 μL diluent to allow dissociation. The association and dissociation durations are indicated on the BLI curves.

Series [7] addresses T4, L-selectin (CD62L) on primary CD4+ T cells (Homo sapiens, UniProt P14151 P14151:39-372).
T4 sequence: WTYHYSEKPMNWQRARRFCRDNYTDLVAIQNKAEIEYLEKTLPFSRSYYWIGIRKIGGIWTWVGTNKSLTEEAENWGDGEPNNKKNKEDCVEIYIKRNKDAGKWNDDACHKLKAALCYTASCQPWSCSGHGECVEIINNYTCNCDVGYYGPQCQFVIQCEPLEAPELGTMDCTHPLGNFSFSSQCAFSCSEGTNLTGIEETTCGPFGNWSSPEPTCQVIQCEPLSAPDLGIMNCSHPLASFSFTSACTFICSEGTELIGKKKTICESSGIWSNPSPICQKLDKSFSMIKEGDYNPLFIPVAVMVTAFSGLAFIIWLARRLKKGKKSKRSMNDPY
The experiment in a line: flow; apparent KD +/-0.086; CD4+ T cells cultured in RPMI + 10% FBS. Conditions: tags: endogenous, label: 5' 6-FAM, Cy5 or biotin (hexaethylene glycol spacer).

The target of series [8] is T2, L-selectin (CD62L, SELL). In words: BLI; +/-0.203; 1:1 fit poor (R2 0.9029); aptamer immobilised; DPBS Ca/Mg + 5 mM MgCl2, 1% BSA, tRNA, salmon sperm DNA, Tween-20. As to conditions: tags: recombinant human CD62L, R&D Systems; label: 5' 6-FAM, Cy5 or biotin (hexaethylene glycol spacer). The method, then:
as §1, with “baseline.” for “baseline. The sensors were then transferred to wells containing different concentrations of L-selectin in 200 μL diluent to allow aptamer association with CD62L (R&D Systems of Minneapolis, Minnesota), CD62P (ACROBiosystems of Newark, Delaware), or CD62E (ACROBiosystems). Finally, the sensors were transferred to wells containing 200 μL diluent to allow dissociation.”
To further validate A1 binding to CD62L, the expression of CD62L was knocked down in J.RT3-T3.5 cells with siRNA duplexes targeting the SELL gene, which encodes CD62L, and compared aptamer and antibody binding to J.RT3-T3.5 cells transfected with the SELL siRNA versus a control siRNA. […] The protein was serially diluted, and the association and dissociation kinetics of biotinylated CD62LApt.88 immobilized on streptavidin tips was measured. The dissociation constants (KD) were calculated by performing a global fit on the curves using a 1:1 model.

In series [9] the target is T4, L-selectin (CD62L) on primary CD4+ T …. In words: flow; apparent KD +/-0.033; cryopreserved CD4+ T cells used right after thaw; DPBS Ca/Mg + 5 mM MgCl2, 4 C. As to conditions: tags: endogenous, label: 5' 6-FAM, Cy5 or biotin (hexaethylene glycol spacer).
The target in series [10] is T3, L-selectin (CD62L) on J.RT3-T3.5 cells. The experiment in a line: flow; stated as sub-nanomolar affinity. As to conditions: tags: endogenous, J.RT3-T3.5 human T-ALL line; label: 5' 6-FAM, Cy5 or biotin (hexaethylene glycol spacer).

P-selectin (CD62P, SELP), sequence (P16109 42-771, one chain of several): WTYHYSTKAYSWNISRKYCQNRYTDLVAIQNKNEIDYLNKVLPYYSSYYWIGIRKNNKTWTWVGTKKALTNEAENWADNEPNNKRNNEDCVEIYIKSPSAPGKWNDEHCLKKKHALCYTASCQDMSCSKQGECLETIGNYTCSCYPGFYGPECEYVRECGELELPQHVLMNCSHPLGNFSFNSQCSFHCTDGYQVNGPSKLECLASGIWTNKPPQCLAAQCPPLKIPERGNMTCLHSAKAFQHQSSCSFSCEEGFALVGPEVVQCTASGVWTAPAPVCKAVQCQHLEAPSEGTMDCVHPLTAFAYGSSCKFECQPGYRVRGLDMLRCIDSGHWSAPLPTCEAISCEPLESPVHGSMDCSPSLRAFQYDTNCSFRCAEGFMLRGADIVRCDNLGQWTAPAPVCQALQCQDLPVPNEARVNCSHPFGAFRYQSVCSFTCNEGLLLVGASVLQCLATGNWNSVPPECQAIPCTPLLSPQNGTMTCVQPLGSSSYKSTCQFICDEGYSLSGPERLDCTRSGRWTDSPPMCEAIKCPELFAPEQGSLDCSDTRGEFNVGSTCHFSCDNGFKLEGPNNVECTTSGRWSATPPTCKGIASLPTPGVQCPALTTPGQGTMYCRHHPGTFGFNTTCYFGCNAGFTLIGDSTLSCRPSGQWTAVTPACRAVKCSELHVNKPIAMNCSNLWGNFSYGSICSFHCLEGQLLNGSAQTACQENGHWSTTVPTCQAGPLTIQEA

The molecule “Alexa Fluor 488 anti-human CD62L monoclonal antibody, clone DREG-56 (BioLegend)” returned a relative antibody binding after CD62L siRNA knockdown (vs control siRNA) in series [1] of 17%.

B1: CD62LApt.52 (ssDNA)
DNA: TAGTCAAGGCGATAGACGAAAAACATTGTTTTCCTGGAAGGCCCAGAATCTG
With B1, the binding result in series [2] and in [3] was “no binding” each time. The Kd in [4] worked out at 5.3 nM; in series [5], 0.19 nM.

B2: CD62LApt.61 (ssDNA)
DNA: AGACCCGACGCAGCATAGTCAAGGCGATAGACGAAAAACATTGTTTTCCTGGAAGGCCCAGAATCTGCG
With B2, in series [6], the Kd was found to be 5.81 nM.

B3: CD62LApt.88 (A1, L-SA.88) (ssDNA)
DNA: ATCCAGAGTGACGCAGCATAGTCAAGGCGATAGACGAAAAACATTGTTTTCCTGGAAGGCCCAGAATCTGTGGACACGGTGGCTTAGT
As for B3, the Kd in [7] is 0.31 nM; in [8], 4.91 nM; in series [9], 0.04 nM; in [10], below 1 nM.
